The values below come from article PMC8236918, “CYRI-A limits invasive migration through macropinosome formation and integrin uptake regulation” (The Journal of Cell Biology, 2021).

The target in this assay is untagged full-length RAC1 Q61L (UniProt P63000 1-192, Q61L). The experiment in a line: SPR; MBP-tagged CYRI immobilised on Sensor chip CM5; purified untagged RAC1 Q61L titrated at different concentrations; steady-state responses fitted to a 1:1 binding model. Conditions: both partners purified.

B1: MBP-tagged full-length CYRI-B (natural protein)
chain: MGNLLKVLTCTDLEQGPNFFLDFENAQPTESEKEIYNQVNVVLKDAEGILEDLQSYRGAGHEIREAIQHPADEKLQEKAWGAVVPLVGKLKKFYEFSQRLEAALRGLLGALTSTPYSPTQHLEREQALAKQFAEILHFTLRFDELKMTNPAIQNDFSYYRRTLSRMRINNVPAEGENEVNNELANRMSLFYAEATPMLKTLSDATTKFVSENKNLPIENTTDCLSTMASVCRVMLETPEYRSRFTNEETVSFCLRVMVGVIILYDHVHPVGAFAKTSKIDMKGCIKVLKDQPPNSVEGLLNALRYTTKHLNDETTSKQIRSMLQ
notes: CYRI-B (encoded by FAM49B), full length; source: E. coli BL21, purified (MBPTrap HP, size-exclusion chromatography)
One may read the Kd as the free concentration of one partner at which half of the binding sites on the other are occupied at equilibrium, for simple one-to-one binding. As for B1, the dissociation constant Kd was ~38 µM.
